Assay results: publication PMC9525683, “Structural analysis of human CEACAM1 oligomerization” (Communications Biology, 2022)

Target: the molecule itself
Assay: crystal structure; tagless hCEACAM1 IgV at 15 mg/ml; sitting drop, 25 °C; 0.2 M ammonium sulfate, 0.1 M HEPES pH 7.5, 25% w/v PEG 3350; space group C121; 2.2 Å; three molecules in the asymmetric unit

B1: human CEACAM1 IgV domain, wild type (tagless) (domain or fragment)
chain: QLTTESMPFNVAEGKEVLLLVHNLPQQLFGYSWYKGERVDGNRQIVGYAIGTQQATPGPANSGRETIYPNASLLIQNVTQNDTGFYTLQVIKSDLVNEEATGQFHVY
notes: carcinoembryonic antigen-related cell adhesion molecule 1 (CEACAM1), human, N-terminal IgV domain, non-glycosylated; The 15N-labelled form (M9 medium) was used for NMR, the unlabelled form for the crystals and UV spectroscopy; also called hCEACAM1 IgV; hCEACAM1 WT
Question: Does B1 bind?
Answer: binds
